Read-outs that look alike come from different tables or passages of the source.
Legend:
rat TIMP-1 [1] = target: T1, rat TIMP-1 (rat, UniProt P30120 24-217); assay: cell-based or functional assay
rat TIMP-1 [2] = target: T1, rat TIMP-1; assay: SPR (BIAcore), TIMP-1 coupled to chip, monovalent Fab
Protocol: (§1) For affinity determination, monomeric fractions of affinity and SEC purified Fab fragments or purified IgG1 molecules were used. All experiments were conducted in HBS buffer at a flow rate of 20 μl/min at 25° C. on a BIAcore™ instrument. Antigens in 100 mM sodium acetate pH 5.0 were coupled to a CM 5 sensor chip using standard EDC-NHS coupling chemistry. […] All sensograms were fitted globally using BIA evaluation software. For monovalent Fab fragments a monovalent fit (Langmuir binding) and for IgGs a bivalent fit was applied.

human TIMP-1 [3] = target: T2, human TIMP-1 (human, UniProt P01033 24-207); assay: cell-based or functional assay
human TIMP-1 [4] = target: T2, human TIMP-1; assay: SPR (BIAcore), TIMP-1 coupled to chip, monovalent Fab
Protocol: as §1

rat TIMP-1 [5] = target: T1, rat TIMP-1; assay: cell-based or functional assay; remark: listed apart in the source
rat TIMP-1 [6] = target: T1, rat TIMP-1; assay: SPR (BIAcore), TIMP-1 coupled to chip, monovalent Fab; remark: listed apart in the source
Protocol: as §1

human TIMP-1 [7] = target: T2, human TIMP-1; assay: cell-based or functional assay; remark: listed apart in the source
human TIMP-1 [8] = target: T2, human TIMP-1; assay: SPR (BIAcore), TIMP-1 coupled to chip, monovalent Fab; remark: listed apart in the source
Protocol: as §1

T1 sequence (P30120 24-217 limits assumed): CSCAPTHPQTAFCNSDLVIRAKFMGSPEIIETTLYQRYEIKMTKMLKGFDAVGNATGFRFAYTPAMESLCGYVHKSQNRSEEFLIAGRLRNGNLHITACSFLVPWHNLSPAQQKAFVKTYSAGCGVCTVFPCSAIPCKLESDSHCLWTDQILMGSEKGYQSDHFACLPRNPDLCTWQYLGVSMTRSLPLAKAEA

B1: MS-BW-56 (Fab, V domains shown)
VH: QVQLVQSGAEVKKPGSSVKVSCKASGGTFSSYAISWVRQAPGQGLEWMGGIIPIFGTANYAQKFQGRVTITADESTSTAYMELSSLRSEDTAVYYCARQEWYMDYWGQGTLVTVSS
VL: DIELTQPPSVSVAPGQTARISCSGDALGDKYASWYQQKPGQAPVLVIYDDSDRPSGIPERFSGSNSGNTATLTISGTQAEDEADYYCQSYDRSMWVFGGGTKLTVLG
notes: Fab, FLAG + Strep-tag II; not tied by name
IC50 in rat protease assay (rat TIMP-1 [1]): > 100 nM | Kd (rat TIMP-1 [2]): ~170 nM

B2: MS-BW-40 (Fab, V domains shown)
VH: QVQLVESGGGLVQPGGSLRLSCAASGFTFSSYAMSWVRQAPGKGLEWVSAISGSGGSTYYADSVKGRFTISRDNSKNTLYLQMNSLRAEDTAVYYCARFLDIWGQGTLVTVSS
VL: DIALTQPASVSGSPGQSITISCTGTSSDVGGYNYVSWYQQHPGKAPKLMIYDVSNRPSGVSNRFSGSKSGNTASLTISGLQAEDEADYYCQSYDYQQFTVFGGGTKLTVLG
notes: Fab: heavy chain of MS-BW-3 with light chain of MS-BW-1; not tied by name
IC50 in human protease assay (human TIMP-1 [3]): > 100 nM | Kd (human TIMP-1 [4]): ~49 nM

B3: MS-BW-61 (Fab, V domains shown)
VH: QVQLVQSGAEVKKPGESLKISCKGSGYSFTSYWIGWVRQMPGKGLEWMGIIYPGDSDTRYSPSFQGQVTISADKSISTAYLQWSSLKASDTAMYYCARIIGDYVIFFDVWGQGTLVTVSS
VL: DIALTQPASVSGSPGQSITISCTGTSSDVGGYNYVSWYQQHPGKAPKLMIYDVSNRPSGVSNRFSGSKSGNTASLTISGLQAEDEADYYCQSFDMIHPYVFGGGTKLTVLG
notes: as for B1
IC50 in rat protease assay (rat TIMP-1 [1]): > 100 nM | Kd (rat TIMP-1 [2]): ~51 nM

B4: MS-BW-59 (Fab, V domains shown)
VH: QVQLVQSGAEVKKPGESLKISCKGSGYSFTSYWIGWVRQMPGKGLEWMGIIYPGDSDTRYSPSFQGQVTISADKSISTAYLQWSSLKASDTAMYYCARLRVHDYAMYFDLWGQGTLVTVSS
VL: DIALTQPASVSGSPGQSITISCTGTSSDVGGYNYVSWYQQHPGKAPKLMIYDVSNRPSGVSNRFSGSKSGNTASLTISGLQAEDEADYYCQSYDIMPERVFGGGTKLTVLG
notes: as for B1
IC50 in rat protease assay (rat TIMP-1 [1]): 30 nM | Kd (rat TIMP-1 [2]): ~15 nM

B5: MS-BW-60 (Fab, V domains shown)
VH: QVQLVQSGAEVKKPGESLKISCKGSGYSFTSYWIGWVRQMPGKGLEWMGIIYPGDSDTRYSPSFQGQVTISADKSISTAYLQWSSLKASDTAMYYCARFVSYNGSVPYFDYWGQGTLVTVSS
VL: DIALTQPASVSGSPGQSITISCTGTSSDVGGYNYVSWYQQHPGKAPKLMIYDVSNRPSGVSNRFSGSKSGNTASLTISGLQAEDEADYYCQSMDFRLMHVFGGGTKLTVLG
notes: as for B1
IC50 in rat protease assay (rat TIMP-1 [1]): > 100 nM | Kd (rat TIMP-1 [2]): ~30 nM

B6: MS-BW-54 (Fab, V domains shown)
VH: QVQLVQSGAEVKKPGESLKISCKGSGYSFTSYWIGWVRQMPGKGLEWMGIIYPGDSDTRYSPSFQGQVTISADKSISTAYLQWSSLKASDTAMYYCARYYGFEYDLLFDNWGQGTLVTVSS
VL: DIALTQPASVSGSPGQSITISCTGTSSDVGGYNYVSWYQQHPGKAPKLMIYDVSNRPSGVSNRFSGSKSGNTASLTISGLQAEDEADYYCQSYDISGYPVFGGGTKLTVLG
notes: as for B1
IC50 in rat protease assay (rat TIMP-1 [1]): 7 nM | IC50 in rat protease assay (rat TIMP-1 [5]): 7 nM | Kd (rat TIMP-1 [6]): 9 nM | Kd (rat TIMP-1 [2]): 9 nM

B7: MS-BW-57 (Fab, V domains shown)
VH: QVQLVQSGAEVKKPGESLKISCKGSGYSFTSYWIGWVRQMPGKGLEWMGIIYPGDSDTRYSPSFQGQVTISADKSISTAYLQWSSLKASDTAMYYCARLYPEDLIYFDYWGQGTLVTVSS
VL: DIALTQPASVSGSPGQSITISCTGTSSDVGGYNYVSWYQQHPGKAPKLMIYDVSNRPSGVSNRFSGSKSGNTASLTISGLQAEDEADYYCQSWDVQTDKVFGGGTKLTVLG
notes: as for B1
IC50 in rat protease assay (rat TIMP-1 [1]): ~60 nM | Kd (rat TIMP-1 [2]): ~39 nM

B8: MS-BW-51 (Fab, V domains shown)
VH: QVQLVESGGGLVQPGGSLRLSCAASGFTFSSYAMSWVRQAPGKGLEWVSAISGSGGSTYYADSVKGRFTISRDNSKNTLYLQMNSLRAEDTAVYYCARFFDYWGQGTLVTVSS
VL: DIALTQPASVSGSPGQSITISCTGTSSDVGGYNYVSWYQQHPGKAPKLMIYDVSNRPSGVSNRFSGSKSGNTASLTISGLQAEDEADYYCQSYDFINVIVFGGGTKLTVLG
notes: Fab: heavy chain of MS-BW-28 with light chain of MS-BW-25; not tied by name
IC50 in human protease assay (human TIMP-1 [3]): 7 nM | Kd (human TIMP-1 [4]): ~7 nM

B9: MS-BW-52 (Fab, V domains shown)
VH: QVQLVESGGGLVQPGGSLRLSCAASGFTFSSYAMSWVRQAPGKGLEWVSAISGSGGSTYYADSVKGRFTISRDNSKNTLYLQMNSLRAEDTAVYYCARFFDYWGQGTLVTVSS
VL: DIALTQPASVSGSPGQSITISCTGTSSDVGGYNYVSWYQQHPGKAPKLMIYDVSNRPSGVSNRFSGSKSGNTASLTISGLQAEDEADYYCQSYDFVRFMVFGGGTKLTVLG
notes: Fab: heavy chain of MS-BW-28 with light chain of MS-BW-26; not tied by name
IC50 in human protease assay (human TIMP-1 [3]): 9 nM | Kd (human TIMP-1 [4]): ~11 nM

B10: MS-BW-43 (Fab, V domains shown)
VH: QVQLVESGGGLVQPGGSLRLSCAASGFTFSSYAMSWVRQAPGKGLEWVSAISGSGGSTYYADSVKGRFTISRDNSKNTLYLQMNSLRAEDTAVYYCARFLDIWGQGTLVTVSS
VL: DIALTQPASVSGSPGQSITISCTGTSSDVGGYNYVSWYQQHPGKAPKLMIYDVSNRPSGVSNRFSGSKSGNTASLTISGLQAEDEADYYCQSYDFINVIVFGGGTKLTVLG
notes: Fab: heavy chain of MS-BW-3 with light chain of MS-BW-25; not tied by name
IC50 in human protease assay (human TIMP-1 [3]): > 100 nM | Kd (human TIMP-1 [4]): ~65 nM

B11: MS-BW-46 (Fab, V domains shown)
VH: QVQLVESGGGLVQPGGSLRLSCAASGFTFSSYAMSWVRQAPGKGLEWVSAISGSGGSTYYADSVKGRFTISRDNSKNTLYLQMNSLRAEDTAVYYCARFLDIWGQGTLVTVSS
VL: DIALTQPASVSGSPGQSITISCTGTSSDVGGYNYVSWYQQHPGKAPKLMIYDVSNRPSGVSNRFSGSKSGNTASLTISGLQAEDEADYYCQSYDFRRFSVFGGGTKLTVLG
notes: Fab: heavy chain of MS-BW-3 with light chain of MS-BW-28; not tied by name
IC50 in human protease assay (human TIMP-1 [3]): 4 nM | Kd (human TIMP-1 [4]): 6 nM

B12: MS-BW-44-2-15 (Fab, V domains shown)
VH: QVQLVESGGGLVQPGGSLRLSCAASGFTFSSYAMSWVRQAPGKGLEWVSGISGNGVLIFYADSVKGRFTISRDNSKNTLYLQMNSLRAEDTAVYYCARWFDHWGQGTLVTVSS
VL: DIALTQPASVSGSPGQSITISCTGTSSDVGGYNYVSWYQQHPGKAPKLMIYDVSNRPSGVSNRFSGSKSGNTASLTISGLQAEDEADYYCQSYDFVRFMVFGGGTKLTVLG
notes: Fab
IC50 in human protease assay (modified, decreased TIMP-1 and MMP-1) (human TIMP-1 [7]): 0.2 nM | Kd (human TIMP-1 [8]): 0.3 nM

B13: MS-BW-41 (Fab, V domains shown)
VH: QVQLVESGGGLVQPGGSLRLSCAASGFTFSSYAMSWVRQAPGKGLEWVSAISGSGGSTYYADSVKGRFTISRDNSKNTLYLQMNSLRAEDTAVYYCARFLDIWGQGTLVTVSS
VL: DIALTQPASVSGSPGQSITISCTGTSSDVGGYNYVSWYQQHPGKAPKLMIYDVSNRPSGVSNRFSGSKSGNTASLTISGLQAEDEADYYCQSYDFKTYLVFGGGTKLTVLG
notes: Fab: heavy chain of MS-BW-3 with light chain of MS-BW-2; not tied by name
IC50 in human protease assay (human TIMP-1 [3]): 29 nM | Kd (human TIMP-1 [4]): ~6 nM

B14: MS-BW-47 (Fab, V domains shown)
VH: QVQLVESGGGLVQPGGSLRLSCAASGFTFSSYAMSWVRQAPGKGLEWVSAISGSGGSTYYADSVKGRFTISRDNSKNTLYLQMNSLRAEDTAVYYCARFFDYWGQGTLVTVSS
VL: DIALTQPASVSGSPGQSITISCTGTSSDVGGYNYVSWYQQHPGKAPKLMIYDVSNRPSGVSNRFSGSKSGNTASLTISGLQAEDEADYYCQSYDYQQFTVFGGGTKLTVLG
notes: Fab: heavy chain of MS-BW-28 with light chain of MS-BW-1; not tied by name
IC50 in human protease assay (human TIMP-1 [3]): > 100 nM | Kd (human TIMP-1 [4]): ~152 nM

B15: MS-BW-44-2-16 (Fab, V domains shown)
VH: QVQLVESGGGLVQPGGSLRLSCAASGFTFSSYAMSWVRQAPGKGLEWVSGISGNGVLIFYADSVKGRFTISRDNSKNTLYLQMNSLRAEDTAVYYCARWFDVWGQGTLVTVSS
VL: DIALTQPASVSGSPGQSITISCTGTSSDVGGYNYVSWYQQHPGKAPKLMIYDVSNRPSGVSNRFSGSKSGNTASLTISGLQAEDEADYYCQSYDFVRFMVFGGGTKLTVLG
notes: Fab
IC50 in human protease assay (modified, decreased TIMP-1 and MMP-1) (human TIMP-1 [7]): 0.3 nM | Kd (human TIMP-1 [8]): 0.5 nM

B16: MS-BW-49 (Fab, V domains shown)
VH: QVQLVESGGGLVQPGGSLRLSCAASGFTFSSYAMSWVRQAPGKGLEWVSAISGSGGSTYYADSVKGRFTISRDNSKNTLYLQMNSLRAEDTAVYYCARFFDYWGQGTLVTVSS
VL: DIALTQPASVSGSPGQSITISCTGTSSDVGGYNYVSWYQQHPGKAPKLMIYDVSNRPSGVSNRFSGSKSGNTASLTISGLQAEDEADYYCQSYDFKTYLVFGGGTKLTVLG
notes: Fab: heavy chain of MS-BW-28 with light chain of MS-BW-2; not tied by name
IC50 in human protease assay (human TIMP-1 [3]): > 100 nM | Kd (human TIMP-1 [4]): ~21 nM

B17: MS-BW-45 (Fab, V domains shown)
VH: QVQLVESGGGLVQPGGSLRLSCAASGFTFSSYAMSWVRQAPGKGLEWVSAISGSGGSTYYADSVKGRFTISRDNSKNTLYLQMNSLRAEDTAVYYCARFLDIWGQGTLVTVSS
VL: DIALTQPASVSGSPGQSITISCTGTSSDVGGYNYVSWYQQHPGKAPKLMIYDVSNRPSGVSNRFSGSKSGNTASLTISGLQAEDEADYYCQSYDFYKFNVFGGGTKLTVLG
notes: Fab: heavy chain of MS-BW-3 with light chain of MS-BW-27; not tied by name
IC50 in human protease assay (human TIMP-1 [3]): 9 nM | Kd (human TIMP-1 [4]): 8 nM

B18: MS-BW-54-1 (Fab, V domains shown)
VH: QVQLVQSGAEVKKPGESLKISCKGSGYSFTSYWIGWVRQMPGKGLEWMGIIYPGDSDTRYSPSFQGQVTISADKSISTAYLQWSSLKASDTAMYYCARYYGFEYDLLFDNWGQGTLVTVSS
VL: DIALTQPASVSGSPGQSITISCTGTSSDLGGYNYVSWYQQHPGKAPKLMIYAGNNRPSGVSNRFSGSKSGNTASLTISGLQAEDEADYYCQAYDSSGYPVFGGGTKLTVLG
notes: Fab from LCDR1, -2, -3 optimization of MS-BW-54
IC50 in rat protease assay (rat TIMP-1 [5]): 3 nM | Kd (rat TIMP-1 [6]): 2 nM

B19: MS-BW-17 (Fab, V domains shown)
VH: QVQLVQSGAEVKKPGESLKISCKGSGYSFTSYWIGWVRQMPGKGLEWMGIIYPGDSDTRYSPSFQGQVTISADKSISTAYLQWSSLKASDTAMYYCARLTNYFDSIYYDHWGQGTLVTVSS
VL: DIALTQPASVSGSPGQSITISCTGTSSDVGGYNYVSWYQQHPGKAPKLMIYDVSNRPSGVSNRFSGSKSGNTASLTISGLQAEDEADYYCQSYDPSHPSKVFGGGTKLTVLG
notes: as for B1
IC50 in rat protease assay (rat TIMP-1 [1]): 11 nM | IC50 in rat protease assay (rat TIMP-1 [5]): 11 nM | Kd (rat TIMP-1 [6]): 13 nM | Kd (rat TIMP-1 [2]): 13 nM

B20: MS-BW-17-2 (Fab, V domains shown)
VH: QVQLVQSGAEVKKPGESLKISCKGSGYSFTSYWIGWVRQMPGKGLEWMGIIYPGDSDTRYSPSFQGQVTISADKSISTAYLQWSSLKASDTAMYYCARLTNYFDSIYYDHWGQGTLVTVSS
VL: DIALTQPASVSGSPGQSITISCTGTSSDVGGYNYVSWYQQHPGKAPKLMIYDVSNRPSGVSNRFSGSKSGNTASLTISGLQAEDEADYYCQAFAVMPNVEVFGGGTKLTVLG
notes: Fab from LCDR3 optimization of MS-BW-17
IC50 in rat protease assay (rat TIMP-1 [5]): 1.1 nM | Kd (rat TIMP-1 [6]): 1.3 nM

B21: MS-BW-17-3 (Fab, V domains shown)
VH: QVQLVQSGAEVKKPGESLKISCKGSGYSFTSYWIGWVRQMPGKGLEWMGIIYPGDSDTRYSPSFQGQVTISADKSISTAYLQWSSLKASDTAMYYCARLTNYFDSIYYDHWGQGTLVTVSS
VL: DIALTQPASVSGSPGQSITISCTGTSSDVGGYNYVSWYQQHPGKAPKLMIYDVSNRPSGVSNRFSGSKSGNTASLTISGLQAEDEADYYCQSFTVSPGADVFGGGTKLTVLG
notes: as for B20
IC50 in rat protease assay (rat TIMP-1 [5]): 3 nM | Kd (rat TIMP-1 [6]): 1.9 nM

— patent publication US20140086935A1 (Bayer, published 2014)
